Laboratory results published in patent US7662388B2, “Endogenous peptide and active subfragments thereof” (Innoventus Project AB, priority 2003, dated 2010).

Tests used:
[1] = test system: primary BCE cells; assay: comparative study pep2/pep3, chemotaxis; assay type: cell-based, bovine; details: 50 ng/ml peptide, FGF-2 10 ng/ml, Zn2+-acetate
Experimental: Primary endothelial cells were starved over night in 0.5% normal calf serum. A migration assay was performed in a modified Boyden chamber as described earlier (Auerbach et al., 1991) using micropore polycarbonate filters (8 μm thick, 8 μm pore) coated with type-1 collagen solution at 100 μg/ml (Vitrogen 100, Collagen Corp). Cells were trypsinized and resuspended at 7.5×10^5 cells/ml in Dulbecco's modified essential medium (Invitrogen) containing 0.25% BSA and Trasylol at 1000 KIE. The cell suspension was added in the upper chamber and FGF-2 (10 ng/ml), HRGP (100 ng/ml), peptide 2 or 3 (50 ng/ml) in medium containing 0.25% BSA were added to the lower chamber. The peptides were dissolved in PBS containing a 10-fold molar excess (Zn:peptide) of Zn^2+-acetate. After 5 h at 37° C., cells that had migrated through the filter were stained with Giemsa and counted using the Easy Image Analysis software. All samples were analyzed in at least six wells for each treatment. Results of the study are illustrated in FIG. 7.

[2] = test system: primary BCE cells; assay: dose response study Pep2, chemotaxis of BCE cells; assay type: cell-based, bovine; details: 20, 50 or 100 ng/ml, FGF-2 10 ng/ml, Zn2+-acetate
Experimental: A migration assay was performed in a modified Boyden chamber as described earlier (Auerbach et al., 1991) using micropore polycarbonate filters (8 μm thick, 8 μm pore) coated with type-1 collagen solution at 100 μg/ml (Vitrogen 100, Collagen Corp). BCE Cells were trypsinised and resuspended at 7.5×10^5 cells/ml in Dulbecco's modified essential medium (Invitrogen) containing 0.25% BSA and Trasylol at 1000 KIE. The cell suspension was added in the upper chamber and FGF-2 (10 ng/ml), and/or peptide 2 (20, 50 or 100 ng/ml) in medium containing 0.25% BSA were added to the lower chamber. The peptides were dissolved in PBS containing a 10-fold molar excess (Zn:peptide) of Zn^2+-acetate. After 5 h at 37° C., cells that had migrated through the filter were stained with Giemsa and counted using an the Easy Image Analysis software. All samples were analysed in at least six wells for each treatment and at several separate occasions.

[3] = test system: T241 fibrosarcoma cells; assay: animal study Pep2, fibrosarcoma tumour growth; assay type: in vivo; details: 5 mg/kg/day s.c. daily, mice bearing fibrosarcoma
Experimental: Tumour study: Female, 5 week old, C57BL6/J mice (Mollegard/Bomhultgard, Denmark) were injected with 0.5×10^6 T241 fibrosarcoma cells subcutaneously (s.c.) into the left flank. Animals carrying palpable tumours were randomised (n=5-10 animals/treatment group) and received treatment with vehicle (Zn-acetate in NaCl), 5 mg/kg/day of HIS1 (=full-length HRGP) or Pep2, in a volume of 100 microliters, given as s.c. injections daily, in the right flank. The tumours were measured with a caliper once a day, in a blind procedure, and volumes were calculated by the formula […]×width^2×length. When the tumours reached the upper limit of 2 cm^3, the mice were sacrificed. The animals were anesthetised with isoflurane (Forene; Abbott) during all manipulations.

[4] = test system: T241 fibrosarcoma cells; assay: fibrosarcoma tumour growth in mice (HRGP); assay type: in vivo; details: 4 mg/kg/day s.c. daily, control PBS, 11 days
Experimental: Animal work was carried out at the local animal facility and was approved by the Uppsala University board of animal experimentation and thus performed according to the UKCCCR guidelines for the welfare of animals in experimental neoplasia (Workman et al (1988)). The mice were anesthetized with isoflurane (Forene; Abbott) during all manipulations. Female, 5 week old, C57BL6/1 mice (Mollegard/Bomhultgard, Denmark) were injected with 0.5×10^6 T241 fibrosarcoma cells subcutaneously (s.c.) into the left flank. Animals carrying palpable tumours were randomized (n=7-10 animals/treatment group) and received treatment with vehicle (PBS), 4 mg/kg/day of pHRGP or 5 mg/kg/day of human IgG or His-HRGP, given as daily subcutaneous injections in the right flank. The tumours were measured with a caliper once a day, in a blind procedure, and volumes were calculated by the formula […]. When the tumours reached the upper limit of 2 cm^3, the mice were sacrificed. Three animals in each group were perfused with 4% paraformaldehyde in PBS pH 7.4. Tumours were embedded in paraffin according to standard histological procedures and sectioned at […] thickness.
C57/bl6 mice were inoculated subcutaneously with T241 fibrosarcoma cells on their left flank and when the tumours were palpable (after 4-6 days), a daily treatment was initiated with HRGP or control (PBS; FIG. 2A, or human IgG; FIG. 2B). Endostatin was included in one study for comparison (FIG. 2B). The treatment was given as subcutaneous injections in the right flank until the size of the control tumours reached the upper limit of […] (11 days; FIG. 2A, 14 days; FIG. 2B). Injections with both pHRGP (4 mg/kg/day) and His-HRGP (5 mg/kg/day) led to a drastic reduction in tumour growth and at the time of sacrifice, the size of the tumours was reduced by 67% (FIG. 2A) and 61% (FIG. 2B) respectively, compared to control-treated animals. Endostatin treatment (25 mg/kg/day) lacked significant inhibitory effect on tumour growth in this model (32% decrease).

[5] = test system: chicken chorioallantoic membrane (CAM); assay: chicken chorioallantoic membrane (CAM) angiogenesis assay; assay type: in vivo; details: for growth factor-induced CAM angiogenesis (newly formed vessels): FGF-2 or VEGF-A 0.2 mg per filter, HRGP 3 mg per filter, three days
Experimental: The effect of HRGP on anglogenesis was tested in the chicken chorioallantoic membrane (CAM) assay.
The conditions for the chorioallantoic membrane (CAM) assay followed essentially a previously described procedure (Friedlander et al (1995), Dixelius et al, (2000)). FGF-2 (Boehringer Mannheim) and VEGF-A (Peprotech) was used at 0.2 mg per filter and purified pHRGP or rHRGP at 3 mg per filter. The treated CAM's were inspected in a light microscope and the score, from 0 (low) to 3 (high) was based on the number of vessel branch points. Average values for 5-6 embryos were recorded.
A filter disc soaked in vehicle or growth factor, with or without HRGP, was placed on top of the CAM in the vicinity of a large vessel and incubated for three days. Treatment of the CAM with growth factors, such as FGF-2, stimulated angiogenesis (FIG. 1C; Table 1).

[6] = test system: NIH 3T3 murine fibroblasts; assay: chemotaxis assay in modified Boyden chamber, NIH 3T3 fibroblasts; assay type: cell-based; details: 100 ng/ml HRGP
Experimental: (§1) The porcine aortic endothelial (PAE) cell line overexpressing FGF receptor-1 (FGFR-1) (Wennström et al 1992) was cultured in Ham's F12/10% fetal bovine serum (FCS) and NIH 3T3 murine fibroblasts were cultured in Dulbecco's modified medium (DMEM)/10% newborn calf serum (NCS). F12, DMEM and serum were bought from Life Technologies. Primary bovine adrenal cortex capillary endothelial (BCE) cells were cultured on gelatin-coated dishes in DMEM/10% NCS and 2 ng/ml FGF-2 (Boehringer Mannheim). For chemotaxis assays, both PAE and NIH 3T3 cells were serum-starved over night in 0.1% BSA and BCE cells in 0.5% NCS. Human embryonic kidney (HEK) 293-EBNA cells were cultured in DMEM/10% FCS. Approximately every second month they were given 0.25 mg/ml G418 (Calbiochem) to ensure positive selection of the EBNA-1 expressing cells.
A migration assay was performed in a modified Boyden chamber as described earlier (Auerbach et al., 1991) using micropore polycarbonate filters (8 μm thick, 8 μm pore) coated with type-1 collagen solution at 100 μg/ml (Vitrogen 100, Collagen Corp). […] After 5 h at 37° C., migrated cells were stained with Giemsa and counted using an image analysis software (Easy Image Analysis) from Tekno Optik AB, Sweden. All samples were analysed in at least six parallel wells for each treatment.

[7] = test system: primary BCE cells; assay: chemotaxis (migration) assay in modified Boyden chamber, BCE cells; assay type: cell-based, bovine
Experimental: as §1
A migration assay was performed in a modified Boyden chamber as described earlier (Auerbach et al., 1991) using micropore polycarbonate filters (8 μm thick, 8 μm pore) coated with type-1 collagen solution at 100 μg/ml (Vitrogen 100, Collagen Corp). BCE, PAE/FGFR-1 or NIH 3T3 cells were preincubated or not with HRGP (100 ng/ml) for 30 min, trypsinised and resuspended at a concentration of 7.5×10^5 cells/ml in Dulbecco's modified essential medium (Invitrogen) containing 0.25% BSA and Trasylol at 1000 KIE. FGF-2 and VEGF-A was used at 5 ng/ml, HRGP and the protein C inhibitor (PCI) at 100 ng/ml and BSA at 0.25%. After 5 h at 37° C., migrated cells were stained with Giemsa and counted using an image analysis software (Easy Image Analysis) from Tekno Optik AB, Sweden. All samples were analysed in at least six parallel wells for each treatment.

## Pep3: 25 amino acid subfragment of the central region, amino acids 365-389 of mature human HRGP, described in WO02/064621 (GHHPHGHHPHGHHPHGHHPHGHHPH; listed as Homo sapiens) [reference compound]
[1]; listed as SEQ.ID.NO:4
  FGF-2-induced chemotaxis of primary BCE cells: not to be active for inhibiting angiogenesis

## Pep2: amino acid subfragment of 35 amino acids, amino acids 330-364 of mature human HRGP (DLHPHKHHSHEQHPHGHHPHAHHPHEHDTHRQHPH; listed as Homo sapiens)
[1]
  FGF-2-induced chemotaxis of primary BCE cells: inhibited
[2]
  FGF-2-induced chemotaxis of primary BCE cells, dose response: dose-dependently inhibited
[3]
  tumour growth (tumour volume): inhibits tumor growth

B1: pHRGP: HRGP purified from human plasma (protein)
chain: VSPTDCSAVEPEAEKALDLINKRRRDGYLFQLLRIADAHLDRVENTTVYYLVLDVQESDCSVLSRKYWNDCEPPDSRRPSEIVIGQCKVIATRHSHESQDLRVIDFNCTTSSVSSALANTKDSPVLIDFFEDTERYRKQANKALEKYKEENDDFASFRVDRIERVARVRGGEGTGYFVDFSVRNCPRHHFPRHPNVFGFCRADLFYDVEALDLESPKNLVINCEVFDPQEHENINGVPPHLGHPFHWGGHERSSTTKPPFKPHGSRDHHHPHKPHEHGPPPPPDERDHSHGPPLPQGPPPLLPMSCSSCQHATFGTNGAQRHSHNNNSSDLHPHKHHSHEQHPHGHHPHAHHPHEHDTHRQHPHGHHPHGHHPHGHHPHGHHPHGHHPHCHDFQDYGPCDPPPHNQGHCCHGHGPPPGHLRRRGPGKGPRPFHCRQIGSVYRLPPLRKGEVLPLPEANFPSFPLPHHKHPLKPDNQPFPQSVSESCPGKFKSGFPQVSMFFTHTFPK
[4]
  reduction of tumour size compared to control-treated animals at sacrifice: 67%
[5]
  growth factor-induced CAM angiogenesis (newly formed vessels): efficient suppression of newly formed vessels
[5]; FGF-2 or VEGF-A together with pHRGP, 3 mg per filter
  effect on pre-established vessels of the CAM: remained unaffected

B2: rHRGP: recombinant HRGP produced in HEK-293-EBNA cells without a His-tag (protein)
chain: B1 chain
[6]
  FGF-2-induced chemotaxis of NIH 3T3 murine fibroblasts: not affected
[5]
  growth factor-induced CAM angiogenesis (newly formed vessels): The same result was obtained
[7]; 100 ng/ml HRGP
  FCS-induced chemotaxis of BCE cells: not inhibited
[7]; 100 ng/ml HRGP, VEGF-A 5 ng/ml
  VEGF-A-induced chemotaxis of BCE cells: attenuated
[7]; 100 ng/ml protein, FGF-2 5 ng/ml, 5 h
  FGF-2-induced chemotaxis of BCE cells: completely blocked
